What was measured:
mouse CD300c = target: T1, mouse CD300c (mouse); experiment: cell-based or functional assay
T1 sequence (A2A7V7 whole entry, looked up): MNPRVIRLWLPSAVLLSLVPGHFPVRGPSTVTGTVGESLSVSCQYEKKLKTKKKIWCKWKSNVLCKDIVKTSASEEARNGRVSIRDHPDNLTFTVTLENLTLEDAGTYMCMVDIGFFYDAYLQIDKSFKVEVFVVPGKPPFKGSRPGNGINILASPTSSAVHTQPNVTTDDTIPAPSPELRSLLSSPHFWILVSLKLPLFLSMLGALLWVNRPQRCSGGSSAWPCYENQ

[1] = target: T2, CD300c antigen (11832-H08H, Sino Biological) (human, UniProt Q08708 21-183); experiment: binding ELISA, plate coated with CD300c antigen (8 µg/mL), HRP anti-Fc IgG detection
T2 construct: Bought antigen; also called CD300c protein; CD300 antigen-like family member C
T2 sequence (looked up): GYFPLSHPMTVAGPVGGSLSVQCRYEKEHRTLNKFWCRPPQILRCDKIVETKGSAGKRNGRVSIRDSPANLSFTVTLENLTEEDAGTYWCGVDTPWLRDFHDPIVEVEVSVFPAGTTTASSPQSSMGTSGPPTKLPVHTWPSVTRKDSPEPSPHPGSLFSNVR
Experimental: In order to identify the antigen-binding ability of the anti-CD300c monoclonal antibodies produced in Example 1, binding ELISA was performed. Specifically, a CD300c antigen (11832-H08H, Sino Biological) or a CD300a antigen (12449-H08H, Sino Biological) in a coating buffer (0.1 M sodium carbonate, pH 9.0) was dispensed into an ELISA plate at a concentration of 8 μg/mL per well, followed by incubation at room temperature for 3 hours to allow the antigen to be bound to the plate. The unbound antigens were removed by washing three times using phosphate buffered saline-Tween 20 (PBST), and then 300 μL of PBST supplemented with 5% bovine serum albumin (BSA) was added to each well, followed by incubation at room temperature for 1 hour and then washing using PBST. Then, an anti-CD300c monoclonal antibody was diluted in quadruplicate and added thereto, followed by incubation for 1 hour at room temperature for antigen binding. After 1 hour, washing was performed three times using PBST to remove unbound anti-CD300c monoclonal antibody, and then 4 μg/mL of an antibody for detection (HRP conjugated anti-Fc IgG) was added, followed by incubation again at room temperature for 1 hour. Subsequently, the unbound antibody for detection was removed using PBST, and then TMB solution was added, followed by incubation for 10 minutes for development. Then, 2 N sulfuric acid solution was added to terminate the development reaction, and the absorbance was measured at 450 nm to identify the antibodies specifically binding to the CD300c antigen.

[2] = target: T3, CD300c on the surface of cells (human, UniProt Q08708 21-224); experiment: flow cytometry (FACS binding) on 293T cells overexpressing CD300c, FITC anti-human IgG (H+L), MFI
T3 construct: whole, on cells; also called cellular antigen
T3 sequence (looked up): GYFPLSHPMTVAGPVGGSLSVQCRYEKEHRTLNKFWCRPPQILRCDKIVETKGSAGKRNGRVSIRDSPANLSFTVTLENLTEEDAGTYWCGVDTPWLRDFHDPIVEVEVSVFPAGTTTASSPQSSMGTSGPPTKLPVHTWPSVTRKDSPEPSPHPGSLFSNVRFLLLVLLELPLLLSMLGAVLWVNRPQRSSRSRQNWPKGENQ
Experimental: In order to identify whether the anti-CD300c monoclonal antibody (CL7) recognizes a cellular antigen, FACS binding was performed.
Then, the cells were incubated with the anti-CD300c monoclonal antibody, which was serially diluted 3-fold starting from 10 μg/mL, in a CO₂ incubator for 30 minutes, and washed twice with FACS buffer. Then, the cells were incubated with FITC-conjugated anti-human IgG (H+L), which was diluted 1:100 in FACS buffer, in a CO₂ incubator for 30 minutes, and washed twice with FACS buffer. Subsequently, FITC signals were measured with a CytoFLEX instrument manufactured by Beckman Coulter, Inc., and then the MFI values were obtained using CytExpert program.

[3] = target: PD-L1 [B7-H1] (Sino Biological) (UniProt Q9NZQ7 19-239); experiment: binding ELISA on coated antigen (8 µg/mL), HRP anti-Fc detection, 450 nm (Experimental Example 2.5)
PD-L1 [B7-H1] (Sino Biological), sequence (Q9NZQ7 19-239 limits assumed): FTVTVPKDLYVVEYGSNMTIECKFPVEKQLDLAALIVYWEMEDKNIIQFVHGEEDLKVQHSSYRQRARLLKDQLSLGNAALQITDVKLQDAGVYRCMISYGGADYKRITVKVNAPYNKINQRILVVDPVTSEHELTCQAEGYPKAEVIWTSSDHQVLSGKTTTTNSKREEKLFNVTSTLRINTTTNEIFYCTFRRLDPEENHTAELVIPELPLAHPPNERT
Experimental: (§1) In order to identify that the anti-CD300c monoclonal antibody CL7 specifically binds only to CD300c without binding to other B7 family proteins, binding ELISA was performed. More specifically, each of CD300c antigen, CD300a antigen, or seven B7 family protein antigens (PD-L1 [B7-H1] (Sino Biological), ICOS Ligand[B7-H2] (Sino Biological), CD276[B7-H3] (Sino Biological), B7-H4 (Sino Biological), CD80[B7-1] (Sino Biological), CD86[B7-2] (Sino Biological), CD273[PD-L2] (Sino Biological)) in a coating buffer (0.1 M sodium carbonate, pH 9.0) was coated on an ELISA plate at a concentration of 8 μg/mL per well, and then bound to the plate by incubation at 2° C. to 8° C. overnight. The unbound antigen was removed by washing with PBST three times, and then […] of blocking buffer (5% skim milk in PBST) was added to each well. Subsequently, blocking was performed at room temperature for 1 hour, followed by washing again with PBST. Thereafter, CL7 was diluted in quadruplicate with PBS, incubated with the antigen at room temperature for 1 hour for antigen binding 1 hour later, and washed three times with PBST. Then, a secondary antibody (HRP-conjugated anti-Fc IgG) diluted to 4 μg/mL in blocking buffer was added thereto, followed by incubation at room temperature for 1 hour. Subsequently, the unbound antibody for detection was removed using PBST, and then a TMB solution was added thereto, followed by incubation for 10 minutes for development. Then, 2 N sulfuric acid solution was added to terminate the development reaction, and the absorbance was measured at 450 nm to identify the antibody specifically binding to the CD300c antigen.

[4] = target: T4, CD80[B7-1] (Sino Biological) (UniProt P33681 35-242); experiment: as above
T4 sequence (looked up): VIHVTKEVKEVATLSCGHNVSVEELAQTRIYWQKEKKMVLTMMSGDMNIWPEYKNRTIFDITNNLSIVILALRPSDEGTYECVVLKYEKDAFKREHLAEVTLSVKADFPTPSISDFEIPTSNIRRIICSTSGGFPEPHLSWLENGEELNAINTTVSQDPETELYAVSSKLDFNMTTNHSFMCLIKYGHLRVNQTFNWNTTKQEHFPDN
Experimental: as §1

cancer cell proliferation inhibitory effect, CT26 mouse colon cancer cells, 10 ug/mL antibody, 5 days, CCK-8 (mouse CD300c): 66%
EC50 [1]: 0.047 µg/mL
EC50 [2]: 2.7 nM
B1: CL7 (antibody, V domains shown)
VH: EVQLLESGGGLVQPGGSLRLSCAASGFTFSRYAMSWVRQAPGKGLEWVSAISGSGGSTYYADSVKGRFTISRDNSKNTLYLQMNSLRAEDTAVYYCARSSQGIFDIWGQGTLVTVSS
VL: QSVLTQPPSASGTPGQRVTISCSGNNIGTRRVHWYQQLPDTAPKLLIYSKNNRPSGVPDRFSGSKSGTSASLAISGLRSEDEADYYCAAWDDSLSGPVFGGGTKLTVL
notes: detected with anti-human IgG (H+L) and anti-Fc IgG; also called anti-CD300c monoclonal antibody CL7; anti-CD300c monoclonal antibody (CL7)
binding result [3]: no binding (tested: log10 about 0.4 ug/ml (about 2.5 ug/ml))
binding result [4]: no binding (tested: log10 about 0.4 ug/ml (about 2.5 ug/ml))
